Experiments:
[1] = target: T1, full-length Ctf19-Mcm21 (K. lactis) (Kluyveromyces lactis, UniProt Q6CRN7 1-270; Q6CVQ9 1-293); assay: MST
T1 chain 1: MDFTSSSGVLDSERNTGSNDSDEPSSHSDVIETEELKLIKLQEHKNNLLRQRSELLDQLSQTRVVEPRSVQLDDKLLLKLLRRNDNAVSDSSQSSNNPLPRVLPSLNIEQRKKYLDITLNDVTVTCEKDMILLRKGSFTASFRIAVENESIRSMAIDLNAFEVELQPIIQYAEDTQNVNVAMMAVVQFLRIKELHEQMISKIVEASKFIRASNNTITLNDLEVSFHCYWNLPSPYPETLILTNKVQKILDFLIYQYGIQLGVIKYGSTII
T1 chain 2: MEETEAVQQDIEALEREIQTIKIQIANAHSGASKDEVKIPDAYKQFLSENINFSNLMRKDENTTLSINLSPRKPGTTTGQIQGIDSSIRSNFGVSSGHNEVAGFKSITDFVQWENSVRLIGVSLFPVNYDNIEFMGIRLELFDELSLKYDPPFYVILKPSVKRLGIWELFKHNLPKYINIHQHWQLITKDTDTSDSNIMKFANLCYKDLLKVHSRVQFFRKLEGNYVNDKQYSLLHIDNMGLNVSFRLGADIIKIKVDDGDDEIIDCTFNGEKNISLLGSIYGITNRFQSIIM

[2] = target: T2, full-length Ctf19-Mcm21 (K. lactis) (Kluyveromyces lactis, UniProt Q6CRN7 1-270; Q6CVQ9 1-293); assay: MST; Ctf19-Mcm21 labelled with NT-647-NHS on lysines, ~27 nM; dilution series of peptide; 22-25°C; ITC/MST buffer; three dilution series; settings: both partners purified
T2 construct: Ctf19 of Kluyveromyces lactis; Mcm21 of Kluyveromyces lactis; for microscale thermophoresis it was labelled on lysine side chains with the red dye NT-647-NHS; also stands for the Ctf19-Mcm21 subassembly of COMA in nanoflow mass spectra; source: E. coli BL21 Rosetta 2(DE3)pLysS, co-expressed, purified
T2 sequence (looked up) 1: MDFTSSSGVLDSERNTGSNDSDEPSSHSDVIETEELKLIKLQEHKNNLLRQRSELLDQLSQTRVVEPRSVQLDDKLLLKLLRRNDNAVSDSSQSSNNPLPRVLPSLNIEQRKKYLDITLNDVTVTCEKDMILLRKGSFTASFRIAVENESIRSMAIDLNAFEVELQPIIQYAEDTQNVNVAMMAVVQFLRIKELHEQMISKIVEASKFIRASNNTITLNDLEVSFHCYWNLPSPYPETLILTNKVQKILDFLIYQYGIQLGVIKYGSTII
T2 sequence (looked up) 2: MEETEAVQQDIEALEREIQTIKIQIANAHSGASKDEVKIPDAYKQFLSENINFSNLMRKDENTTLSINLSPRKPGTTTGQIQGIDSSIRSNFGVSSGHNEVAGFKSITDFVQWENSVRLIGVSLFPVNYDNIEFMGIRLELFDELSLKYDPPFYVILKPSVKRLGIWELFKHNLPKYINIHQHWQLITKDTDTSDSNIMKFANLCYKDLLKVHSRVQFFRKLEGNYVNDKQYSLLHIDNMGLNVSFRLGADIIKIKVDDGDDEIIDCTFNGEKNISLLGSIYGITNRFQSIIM

[3] = target: T3, Ame1-Okp1 (K. lactis, full length) (Kluyveromyces lactis, UniProt Q6CUE5 1-292; Q6CJY0 1-383); assay: native MS; nanoflow spectra and tandem mode with collision-induced dissociation in the gas phase (argon); subassemblies stripped of subunits; settings: both partners purified
T3 construct: Ame1 of Kluyveromyces lactis; Okp1 of Kluyveromyces lactis; stands as the Ame1-Okp1 part of COMA; also called Okp1-Ame1; source: E. coli BL21 Rosetta 2(DE3)pLysS, co-expressed with Ctf19 and Mcm21 versions
T3 sequence (looked up) 1: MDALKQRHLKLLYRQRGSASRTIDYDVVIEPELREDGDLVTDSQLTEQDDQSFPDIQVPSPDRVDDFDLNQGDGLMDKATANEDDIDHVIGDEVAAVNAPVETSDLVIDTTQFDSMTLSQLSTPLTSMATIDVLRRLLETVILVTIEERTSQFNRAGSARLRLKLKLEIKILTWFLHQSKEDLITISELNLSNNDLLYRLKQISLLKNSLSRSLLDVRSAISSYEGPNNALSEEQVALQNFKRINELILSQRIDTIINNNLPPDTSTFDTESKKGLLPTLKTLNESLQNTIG
T3 sequence (looked up) 2: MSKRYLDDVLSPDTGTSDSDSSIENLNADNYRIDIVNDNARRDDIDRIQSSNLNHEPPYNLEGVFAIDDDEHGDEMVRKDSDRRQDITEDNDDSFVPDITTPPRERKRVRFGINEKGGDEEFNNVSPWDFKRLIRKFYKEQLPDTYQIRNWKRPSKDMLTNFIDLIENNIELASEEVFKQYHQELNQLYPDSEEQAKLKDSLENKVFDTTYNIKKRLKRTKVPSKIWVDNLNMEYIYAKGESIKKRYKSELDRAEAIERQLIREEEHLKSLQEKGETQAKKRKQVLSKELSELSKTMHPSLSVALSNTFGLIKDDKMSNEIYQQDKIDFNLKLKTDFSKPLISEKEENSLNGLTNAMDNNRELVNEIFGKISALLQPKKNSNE

[4] = target: T4, Okp1 (K. lactis, full length) (Kluyveromyces lactis, UniProt Q6CJY0 1-383); assay: as above; settings: both partners purified
T4 construct: Okp1 (CENP-Q orthologue) of Kluyveromyces lactis; also called Okp1^CENP-Q; outer kinetochore protein 1; source: E. coli BL21 Rosetta 2(DE3)pLysS, co-expressed as COMA, purified
T4 sequence (looked up): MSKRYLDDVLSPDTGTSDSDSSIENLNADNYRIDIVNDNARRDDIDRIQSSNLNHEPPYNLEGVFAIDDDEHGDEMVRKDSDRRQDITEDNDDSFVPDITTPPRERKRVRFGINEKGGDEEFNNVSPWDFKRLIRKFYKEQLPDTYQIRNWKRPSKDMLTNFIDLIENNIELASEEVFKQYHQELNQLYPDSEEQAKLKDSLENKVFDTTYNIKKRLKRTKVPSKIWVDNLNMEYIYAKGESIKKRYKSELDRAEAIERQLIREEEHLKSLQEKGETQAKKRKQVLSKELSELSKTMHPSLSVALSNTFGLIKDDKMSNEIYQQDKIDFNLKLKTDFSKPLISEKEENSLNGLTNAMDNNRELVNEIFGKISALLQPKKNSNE

[5] = target: T5, COMA (K. lactis, full length: Ame1, Ctf19, Mcm21, Okp1) (Kluyveromyces lactis, UniProt Q6CUE5 1-292; Q6CRN7 1-270; Q6CVQ9 1-293; Q6CJY0 1-383); assay: as above; settings: both partners purified
T5 construct: Ame1 of Kluyveromyces lactis; Ctf19 of Kluyveromyces lactis; Mcm21 of Kluyveromyces lactis; Okp1 of Kluyveromyces lactis; copies: + + +
T5 sequence (looked up) 1: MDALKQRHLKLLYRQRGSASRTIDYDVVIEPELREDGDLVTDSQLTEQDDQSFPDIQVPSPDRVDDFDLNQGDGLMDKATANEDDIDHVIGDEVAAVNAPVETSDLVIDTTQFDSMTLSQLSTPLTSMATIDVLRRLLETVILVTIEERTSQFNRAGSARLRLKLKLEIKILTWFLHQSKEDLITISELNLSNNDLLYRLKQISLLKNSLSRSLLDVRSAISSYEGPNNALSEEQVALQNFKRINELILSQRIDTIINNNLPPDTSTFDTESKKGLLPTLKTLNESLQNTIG
T5 sequence (looked up) 2: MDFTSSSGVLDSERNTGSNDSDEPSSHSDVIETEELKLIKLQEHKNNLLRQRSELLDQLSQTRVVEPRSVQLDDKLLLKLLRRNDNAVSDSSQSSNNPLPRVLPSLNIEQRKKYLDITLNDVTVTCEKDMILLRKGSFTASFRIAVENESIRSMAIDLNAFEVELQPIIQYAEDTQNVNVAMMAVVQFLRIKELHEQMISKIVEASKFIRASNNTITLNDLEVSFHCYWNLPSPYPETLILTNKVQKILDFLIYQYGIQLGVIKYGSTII
T5 sequence (looked up) 3: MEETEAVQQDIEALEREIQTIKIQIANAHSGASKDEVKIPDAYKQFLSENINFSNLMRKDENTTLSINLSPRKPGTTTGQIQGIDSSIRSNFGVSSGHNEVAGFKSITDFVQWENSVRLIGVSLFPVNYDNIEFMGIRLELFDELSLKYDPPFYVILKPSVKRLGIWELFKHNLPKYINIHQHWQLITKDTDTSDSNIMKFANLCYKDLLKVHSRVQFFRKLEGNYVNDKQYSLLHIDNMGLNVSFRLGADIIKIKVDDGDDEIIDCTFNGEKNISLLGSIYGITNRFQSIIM
T5 sequence (looked up) 4: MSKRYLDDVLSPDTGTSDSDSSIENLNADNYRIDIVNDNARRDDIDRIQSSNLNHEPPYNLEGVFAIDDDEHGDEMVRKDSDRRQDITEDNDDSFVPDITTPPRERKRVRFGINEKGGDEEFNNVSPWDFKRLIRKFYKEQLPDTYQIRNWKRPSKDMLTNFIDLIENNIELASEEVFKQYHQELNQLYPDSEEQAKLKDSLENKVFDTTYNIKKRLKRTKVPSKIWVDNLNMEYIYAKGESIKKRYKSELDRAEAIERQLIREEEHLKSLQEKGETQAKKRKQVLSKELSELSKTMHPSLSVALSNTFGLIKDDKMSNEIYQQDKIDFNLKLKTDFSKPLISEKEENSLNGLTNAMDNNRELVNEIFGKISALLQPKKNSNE

[6] = target: the molecule itself; assay: native MS; nanoflow electrospray of intact assemblies in 200 mM ammonium acetate pH 6.7-7.3 or 7.4; higher micromolar concentrations (COMA ~3 or ~6 uM; COMA-Nkp1-Nkp2 ~3 uM)

## SNEIYQQDKIDFNLPLKTDF (synthetic peptide; terminal chemistry not stated) [K332P]
[1]
  Kd: 9.75 µM

B1: Okp1 peptide variant N330A (peptide, UniProt Q6CJY0 318-337, looked up)
peptide: SNEIYQQDKIDFALKLKTDF
notes: source: synthetic peptide (Protein Chemistry core facility, IMP, Vienna)
[1]
  Kd: 5.51 µM
[2]
  binding result: binds

B2: Nkp1 (K. lactis) (natural protein, Kluyveromyces lactis, UniProt Q6CPR4 1-210, looked up)
chain: MDLESEIIQLVRQNIRPKFPSLNDEQQARLDNALKYDVNYDILKKELVEYIDDWKRNEYYDVLTNIGDLQRLDLGNMLNGDGVSFPKLHSDLANLPRFRLIDNENEMDQSLLHKYDSLRTRLIEKCRAIELIRSATNTDVNYQDINSMLSVVELRQWRDEIQMEWKELAQNLELILKTWPDLTEEKRSKLLQLIDSSSLKSILHIKDNIE
notes: Nkp1 of Kluyveromyces lactis; also called non-essential kinetochore protein 1; HisNkp1; source: E. coli BL21 Rosetta 2(DE3)pLysS, purified
[3]
  binding result: binds
[4]
  binding result: binds
[5]
  binding result: binds

B3: COMA-Nkp1-Nkp2 (K. lactis, full length) (complex, Kluyveromyces lactis)
chain 1: MDALKQRHLKLLYRQRGSASRTIDYDVVIEPELREDGDLVTDSQLTEQDDQSFPDIQVPSPDRVDDFDLNQGDGLMDKATANEDDIDHVIGDEVAAVNAPVETSDLVIDTTQFDSMTLSQLSTPLTSMATIDVLRRLLETVILVTIEERTSQFNRAGSARLRLKLKLEIKILTWFLHQSKEDLITISELNLSNNDLLYRLKQISLLKNSLSRSLLDVRSAISSYEGPNNALSEEQVALQNFKRINELILSQRIDTIINNNLPPDTSTFDTESKKGLLPTLKTLNESLQNTIG
chain 2: MDFTSSSGVLDSERNTGSNDSDEPSSHSDVIETEELKLIKLQEHKNNLLRQRSELLDQLSQTRVVEPRSVQLDDKLLLKLLRRNDNAVSDSSQSSNNPLPRVLPSLNIEQRKKYLDITLNDVTVTCEKDMILLRKGSFTASFRIAVENESIRSMAIDLNAFEVELQPIIQYAEDTQNVNVAMMAVVQFLRIKELHEQMISKIVEASKFIRASNNTITLNDLEVSFHCYWNLPSPYPETLILTNKVQKILDFLIYQYGIQLGVIKYGSTII
chain 3: MEETEAVQQDIEALEREIQTIKIQIANAHSGASKDEVKIPDAYKQFLSENINFSNLMRKDENTTLSINLSPRKPGTTTGQIQGIDSSIRSNFGVSSGHNEVAGFKSITDFVQWENSVRLIGVSLFPVNYDNIEFMGIRLELFDELSLKYDPPFYVILKPSVKRLGIWELFKHNLPKYINIHQHWQLITKDTDTSDSNIMKFANLCYKDLLKVHSRVQFFRKLEGNYVNDKQYSLLHIDNMGLNVSFRLGADIIKIKVDDGDDEIIDCTFNGEKNISLLGSIYGITNRFQSIIM
chain 4: MSKRYLDDVLSPDTGTSDSDSSIENLNADNYRIDIVNDNARRDDIDRIQSSNLNHEPPYNLEGVFAIDDDEHGDEMVRKDSDRRQDITEDNDDSFVPDITTPPRERKRVRFGINEKGGDEEFNNVSPWDFKRLIRKFYKEQLPDTYQIRNWKRPSKDMLTNFIDLIENNIELASEEVFKQYHQELNQLYPDSEEQAKLKDSLENKVFDTTYNIKKRLKRTKVPSKIWVDNLNMEYIYAKGESIKKRYKSELDRAEAIERQLIREEEHLKSLQEKGETQAKKRKQVLSKELSELSKTMHPSLSVALSNTFGLIKDDKMSNEIYQQDKIDFNLKLKTDFSKPLISEKEENSLNGLTNAMDNNRELVNEIFGKISALLQPKKNSNE
chain 5: MDLESEIIQLVRQNIRPKFPSLNDEQQARLDNALKYDVNYDILKKELVEYIDDWKRNEYYDVLTNIGDLQRLDLGNMLNGDGVSFPKLHSDLANLPRFRLIDNENEMDQSLLHKYDSLRTRLIEKCRAIELIRSATNTDVNYQDINSMLSVVELRQWRDEIQMEWKELAQNLELILKTWPDLTEEKRSKLLQLIDSSSLKSILHIKDNIE
chain 6: MLHEVLYKHLDGILVSRLYTEDQFVDLFSRTIPESNTVIASQLYKSYEENDQRIIEKIDKLIDNKLSLIRVELEREQIEDSISLEEVNKLLHSIDDMLQQHLNQLNIELDNKNTKLLKYAMELSDIEAIDTSMYDNVAKLITDMETNQPSS
notes: Ame1 of Kluyveromyces lactis; Ctf19 of Kluyveromyces lactis; Mcm21 of Kluyveromyces lactis; N-terminal SNA residual; Okp1 of Kluyveromyces lactis; Nkp1 of Kluyveromyces lactis; Nkp2 of Kluyveromyces lactis; source: E. coli BL21 Rosetta 2(DE3)pLysS, reconstituted, purified (SEC); not shown: polyhistidine, N-terminal, cleaved; copies: + + + + +
[6]
  stoichiometry N: 2

## SNEIYQQDKIAANLKLKTDF (synthetic peptide; terminal chemistry not stated) [D328A-F329A]
[1]
  Kd: 64 µM
